Assay results from IntAct's records for PubMed 30126976.

B1: Guanylate cyclase soluble subunit alpha-2 (Homo sapiens), P33402 (parent)
chain: MSRRKISSESFSSLGSDYLETSPEEEGECPLSRLCWNGSRSPPGPLEPSPAAAAAAAAPAPTPAASAAAAAATAGARRVQRRRRVNLDSLGESISRLTAPSPQTIQQTLKRTLQYYEHQVIGYRDAEKNFHNISNRCSYADHSNKEEIEDVSGILQCTANILGLKFEEIQKRFGEEFFNICFHENERVLRAVGGTLQDFFNGFDALLEHIRTSFGKQATLESPSFLCKELPEGTLMLHYFHPHHIVGFAMLGMIKAAGKKIYRLDVEVEQVANEKLCSDVSNPGNCSCLTFLIKECENTNIMKNLPQGTSQVPADLRISINTFCRAFPFHLMFDPSMSVLQLGEGLRKQLRCDTHKVLKFEDCFEIVSPKVNATFERVLLRLSTPFVIRTKPEASGSENKDKVMEVKGQMIHVPESNSILFLGSPCVDKLDELMGRGLHLSDIPIHDATRDVILVGEQAKAQDGLKKRMDKLKATLERTHQALEEEKKKTVDLLYSIFPGDVAQQLWQGQQVQARKFDDVTMLFSDIVGFTAICAQCTPMQVISMLNELYTRFDHQCGFLDIYKVETIGDAYCVAAGLHRKSLCHAKPIALMALKMMELSEEVLTPDGRPIQMRIGIHSGSVLAGVVGVRMPRYCLFGNNVTLASKFESGSHPRRINVSPTTYQLLKREESFTFIPRSREELPDNFPKEIPGICYFLEVRTGPKPPKPSLSSSRIKKVSYNIGTMFLRETSL
B2: Cysteinyl leukotriene receptor 2 (Homo sapiens), Q9NS75 (parent)
chain: MERKFMSLQPSISVSEMEPNGTFSNNNSRNCTIENFKREFFPIVYLIIFFWGVLGNGLSIYVFLQPYKKSTSVNVFMLNLAISDLLFISTLPFRADYYLRGSNWIFGDLACRIMSYSLYVNMYSSIYFLTVLSVVRFLAMVHPFRLLHVTSIRSAWILCGIIWILIMASSIMLLDSGSEQNGSVTSCLELNLYKIAKLQTMNYIALVVGCLLPFFTLSICYLLIIRVLLKVEVPESGLRVSHRKALTTIIITLIIFFLCFLPYHTLRTVHLTTWKVGLCKDRLHKALVITLALAAANACFNPLLYYFAGENFKDRLKSALRKGHPQKAKTKCVFPVSVWLRKETRV
B3: Monocarboxylate transporter 4 (Homo sapiens), O15427 (parent)
chain: MGGAVVDEGPTGVKAPDGGWGWAVLFGCFVITGFSYAFPKAVSVFFKELIQEFGIGYSDTAWISSILLAMLYGTGPLCSVCVNRFGCRPVMLVGGLFASLGMVAASFCRSIIQVYLTTGVITGLGLALNFQPSLIMLNRYFSKRRPMANGLAAAGSPVFLCALSPLGQLLQDRYGWRGGFLILGGLLLNCCVCAALMRPLVVTAQPGSGPPRPSRRLLDLSVFRDRGFVLYAVAASVMVLGLFVPPVFVVSYAKDLGVPDTKAAFLLTILGFIDIFARPAAGFVAGLGKVRPYSVYLFSFSMFFNGLADLAGSTAGDYGGLVVFCIFFGISYGMVGALQFEVLMAIVGTHKFSSAIGLVLLMEAVAVLVGPPSGGKLLDATHVYMYVFILAGAEVLTSSLILLLGNFFCIRKKPKEPQPEVAAAEEEKLHKPPADSGVDLREVEHFLKAEPEKNGEVVHTPETSV
B4: FERM and PDZ domain-containing protein 1 (Homo sapiens), Q5SYB0 (parent)
chain: MEELETSLFQTRKAHRIEQMVARWLRRSRDSSARAKVAAADGPARNPTQTLIPVRHTVKIDKDTLLQDYGFHISESLPLTVVAVTAGGSAHGKLFPGDQILQMNNEPAEDLSWERAVDILREAEDSLSITVVRCTSGVPKSSFLTEEKRARLKTNPVKVHFAEEVLISGHSQGNSLLCMPNVLKLYLENGQTKAFKFEANTTVKDIILTVKEKLSIRSIEYFALALEEQYSISRLHLLHEEELIQQVVEREESHDYRCLFRVCFVPKDPLDLLKEDPVAFEYLYLQSCSDVLQERFAVEMKCSSALRLAALHIQERIYACAQPQKISLKYIEKDWGIENFISPTLLRNMKGKDIKKAISFHMKRNQNLLEPRQKQLISAAQLRLNYLQILGELKTYGGRIFNATLMLQDRESYIALLVGAKYGISQVINSKLNIMSTLAEFANISRVELTEESEKVSVVKVYLQDVKVLTLLLESNSAKDLACLIAGYYRLLVDPVTSIFLWPGNKQQAHRVSAEEGYESRACSDSEESSEVDCVLEPLSDRRLVKLAPCRSLIKEEQPPGNSPTPEVARRGPSTCGASSTTDSAESEASDSANTESRGYRTSGSSESMDALEEDDLDTCSSSRSTFFHFGSPGLAESIDSDSQEERSGIETSGFLCLLDLAQRANPQCQKTEFSESAALETFGWAPELSTVRLDPRLYEGSHADYYSLCSSVSPASYLSDSSESTASRQGGAPPAWGQQGWTEAQPSSMLEPLALHPPLAFEDGSSDEEYYDAADKLTPPGPPSGPRDVSTAEPSATSLQNKASTSSPENSLPCGPDGRQPSRRGGVKKYAKTLRKRRSFLQTDYTSQVSFPLVPSASLESVDDVCYYDREPYLALGAPSPTVSSLQDMQGEPGLLETKALGLLAPLRETKSTNPASRVMEMEPETMETKSVIDSRVSSISAIRFRIDPNNKENSGVVPAASSSASTPHCSNPGSSGPDTAQARPSQILPLSQDLDGIAPKEPTIEHGDSSFSLSSGDPNPDRACLASNPGLNNVSQGDTLELQLEPHVQLEMGLESFCTNHIQETAPKYTEPLLSPRDEPRSDECGINPGEKIASIPTKEEPQGQLSLERDREVTNKNGTNVFQEESRKDSGDSPGDVSNNVSQTLDISSPAGKIVTSLSLDAPVTGTEQIPPHPPRDPQGQSREPPGQGCQAQEQKLFVELDLDPDFFLGKQTVSPAVPPEGIKAEAPNHVTGQDIAPRDSPEWVCFNPEPSLPEPLPCPQEDPHLETSNHCLLSEGKSDSSSICLSAEKSFLCFAPESHPEVSASLRVATSLGFAGMNEMVAPRIGMDQCSCQFSYATCFRGPQPETEEEDRDLEAHPMAPLTSPPSAGSPVVLPWRPARAHSCTTAPLSRKSHIWPEYCSRALRQLKATPASTPEGFIQLMESLLELQDILETSWGVGNKHPPEKCTWHFTESRSRLCMGSQKLLSSCRHVIRMDQSPEEMQGAVRDTFQHLVQLAGLCFQFTDCSRCSARHREAAGNLRDVVYTYHQFIEAAKSTCERGYHDLSVKLLARQCTALTAAVFCLTQKFRASTAL
B5: Inward rectifier potassium channel 4 (Homo sapiens), P48050 (parent)
chain: MHGHSRNGQAHVPRRKRRNRFVKKNGQCNVYFANLSNKSQRYMADIFTTCVDTRWRYMLMIFSAAFLVSWLFFGLLFWCIAFFHGDLEASPGVPAAGGPAAGGGGAAPVAPKPCIMHVNGFLGAFLFSVETQTTIGYGFRCVTEECPLAVIAVVVQSIVGCVIDSFMIGTIMAKMARPKKRAQTLLFSHHAVISVRDGKLCLMWRVGNLRKSHIVEAHVRAQLIKPYMTQEGEYLPLDQRDLNVGYDIGLDRIFLVSPIIIVHEIDEDSPLYGMGKEELESEDFEIVVILEGMVEATAMTTQARSSYLASEILWGHRFEPVVFEEKSHYKVDYSRFHKTYEVAGTPCCSARELQESKITVLPAPPPPPSAFCYENELALMSQEEEEMEEEAAAAAAVAAGLGLEAGSKEEAGIIRMLEFGSHLDLERMQASLPLDNISYRRESAI

Variants of: B1
Conditions: with scrib_human SCRIB
Target sequence in this assay (Q14160 whole entry): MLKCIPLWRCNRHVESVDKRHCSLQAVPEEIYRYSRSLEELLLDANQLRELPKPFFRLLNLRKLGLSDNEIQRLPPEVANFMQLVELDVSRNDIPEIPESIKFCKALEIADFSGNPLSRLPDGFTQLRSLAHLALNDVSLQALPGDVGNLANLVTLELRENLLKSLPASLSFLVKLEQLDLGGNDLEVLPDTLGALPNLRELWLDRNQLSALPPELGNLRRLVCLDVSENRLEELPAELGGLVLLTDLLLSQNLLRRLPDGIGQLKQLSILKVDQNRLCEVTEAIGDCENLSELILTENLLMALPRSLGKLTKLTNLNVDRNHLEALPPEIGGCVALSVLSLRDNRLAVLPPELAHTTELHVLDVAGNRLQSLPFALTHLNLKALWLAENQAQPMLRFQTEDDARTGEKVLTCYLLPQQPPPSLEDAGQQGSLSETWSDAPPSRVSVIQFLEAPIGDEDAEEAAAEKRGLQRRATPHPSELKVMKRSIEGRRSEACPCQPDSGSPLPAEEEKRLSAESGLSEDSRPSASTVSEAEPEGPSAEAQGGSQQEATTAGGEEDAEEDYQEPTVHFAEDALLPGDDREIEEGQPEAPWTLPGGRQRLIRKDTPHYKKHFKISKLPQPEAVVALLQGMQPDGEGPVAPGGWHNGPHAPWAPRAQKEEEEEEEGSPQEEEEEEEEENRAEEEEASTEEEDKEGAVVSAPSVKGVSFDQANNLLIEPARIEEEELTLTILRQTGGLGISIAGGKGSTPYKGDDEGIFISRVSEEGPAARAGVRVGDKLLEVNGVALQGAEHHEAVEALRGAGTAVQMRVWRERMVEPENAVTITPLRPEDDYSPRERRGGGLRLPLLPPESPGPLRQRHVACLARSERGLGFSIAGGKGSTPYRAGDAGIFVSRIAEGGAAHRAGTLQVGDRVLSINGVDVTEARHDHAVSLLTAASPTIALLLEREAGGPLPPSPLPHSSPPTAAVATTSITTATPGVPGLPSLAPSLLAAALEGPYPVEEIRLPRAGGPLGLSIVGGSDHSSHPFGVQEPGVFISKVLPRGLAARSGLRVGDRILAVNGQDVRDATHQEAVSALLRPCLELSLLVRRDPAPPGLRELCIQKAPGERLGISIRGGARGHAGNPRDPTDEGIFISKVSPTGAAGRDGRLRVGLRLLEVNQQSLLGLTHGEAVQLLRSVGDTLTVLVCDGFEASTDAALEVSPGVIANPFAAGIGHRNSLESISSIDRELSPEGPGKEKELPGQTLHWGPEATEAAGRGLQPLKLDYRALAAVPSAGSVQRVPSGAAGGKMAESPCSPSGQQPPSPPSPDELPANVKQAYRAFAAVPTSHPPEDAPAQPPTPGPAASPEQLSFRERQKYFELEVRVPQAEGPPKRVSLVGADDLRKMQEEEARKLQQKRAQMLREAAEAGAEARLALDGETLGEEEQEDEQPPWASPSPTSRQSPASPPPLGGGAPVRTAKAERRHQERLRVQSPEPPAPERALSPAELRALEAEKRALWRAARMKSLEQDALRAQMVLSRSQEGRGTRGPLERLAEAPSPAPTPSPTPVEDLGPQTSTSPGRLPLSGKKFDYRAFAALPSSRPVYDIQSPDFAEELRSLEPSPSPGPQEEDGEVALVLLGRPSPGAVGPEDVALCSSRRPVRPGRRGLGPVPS

| Variant | effect of a mutation on the interaction |
| --- | --- |
| S731E | increasing interaction strength |

Variants of: B2
Conditions: with scrib_human SCRIB
Target sequence in this assay (Q14160 whole entry): as above

| Variant | effect of a mutation on the interaction |
| --- | --- |
| T344E | disrupting interaction strength |

Variants of: B2
Conditions: with dlg1_human DLG1, Q12959
Chain of dlg1_human DLG1, Q12959 (Q12959 whole entry, looked up): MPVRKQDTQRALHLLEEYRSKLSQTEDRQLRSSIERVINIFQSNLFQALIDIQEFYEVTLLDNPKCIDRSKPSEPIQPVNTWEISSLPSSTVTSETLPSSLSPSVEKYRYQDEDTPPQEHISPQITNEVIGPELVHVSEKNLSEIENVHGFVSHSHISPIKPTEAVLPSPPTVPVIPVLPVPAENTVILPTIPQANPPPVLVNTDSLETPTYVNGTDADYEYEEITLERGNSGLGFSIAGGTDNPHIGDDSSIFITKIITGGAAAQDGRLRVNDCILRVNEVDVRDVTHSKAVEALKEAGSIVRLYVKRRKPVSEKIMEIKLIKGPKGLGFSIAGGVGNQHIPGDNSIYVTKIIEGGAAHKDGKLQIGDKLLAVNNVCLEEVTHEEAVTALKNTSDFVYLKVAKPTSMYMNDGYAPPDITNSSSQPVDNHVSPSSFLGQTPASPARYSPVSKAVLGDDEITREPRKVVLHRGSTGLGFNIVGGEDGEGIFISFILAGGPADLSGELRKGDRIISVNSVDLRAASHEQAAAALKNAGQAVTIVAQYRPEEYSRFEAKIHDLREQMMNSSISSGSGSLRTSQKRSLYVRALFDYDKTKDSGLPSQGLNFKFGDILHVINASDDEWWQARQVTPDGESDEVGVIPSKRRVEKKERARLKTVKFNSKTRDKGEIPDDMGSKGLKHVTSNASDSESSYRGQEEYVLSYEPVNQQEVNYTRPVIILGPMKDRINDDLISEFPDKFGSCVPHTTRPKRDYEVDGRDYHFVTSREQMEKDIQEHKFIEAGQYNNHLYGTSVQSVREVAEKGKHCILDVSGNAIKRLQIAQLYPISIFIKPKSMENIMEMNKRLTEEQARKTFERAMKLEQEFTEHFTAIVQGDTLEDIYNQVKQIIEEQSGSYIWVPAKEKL

| Variant | effect of a mutation on the interaction |
| --- | --- |
| T344E | disrupting interaction strength |

Variants of: B3
Conditions: with scrib_human SCRIB
Target sequence in this assay (Q14160 whole entry): as the sequence (Q14160 whole entry) above

| Variant | effect of a mutation on the interaction |
| --- | --- |
| S464E | with no effect |

Variants of: B4
Conditions: with scrib_human SCRIB
Target sequence in this assay (Q14160 whole entry): as above

| Variant | effect of a mutation on the interaction |
| --- | --- |
| S1575E | increasing interaction strength |

Variants of: B5
Conditions: with scrib_human SCRIB
Target sequence in this assay (Q14160 whole entry): as above

| Variant | effect of a mutation on the interaction |
| --- | --- |
| S443E | disrupting interaction strength |
